US20260265358A1 (BYOMASS, published 2026)
Substitutions are numbered along the chain they refer to. Values joined by “and” are separate entries in the source; they are usually repeats but may differ in a detail not shown here. Equal entries are not always repeated. Values belong to the binder of their own block, whether it stands above or below them.

Key:
Human Activin A Fc [1] = target: T1, Human Activin A Fc (human, UniProt P03970 309-424 (pig entry)); assay: Octet BLI, IgG, avid
T1 construct: also called human Activin A-Fc fusion; human Activin A-Fc antigen; not shown: Fc part
T1 sequence: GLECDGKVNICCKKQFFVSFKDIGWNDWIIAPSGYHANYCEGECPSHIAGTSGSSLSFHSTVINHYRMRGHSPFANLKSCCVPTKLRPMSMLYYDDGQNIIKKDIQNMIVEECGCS
Procedure: ForteBio affinity measurements were performed on an Octet HTX generally as previously described (see, e.g., Estep et al, Mabs 5(2), 270-278 (2013)). Briefly, ForteBio affinity measurements were performed by loading IgGs on-line onto AHC sensors. Sensors were equilibrated off-line in assay buffer for 30 min and then monitored on-line for 60 seconds for baseline establishment. Sensors with loaded IgGs were exposed to 100 nM antigen for 3 minutes, and afterwards were transferred to assay buffer for 3 min for off-rate measurement. All kinetics were analyzed using the 1:1 binding model.
Binding affinity and epitope binning assays were performed with a ForteBio instrument as described herein.

Activin B [2] = target: T2, Activin B (UniProt P09529 293-407); assay: Octet BLI, IgG, avid
T2 sequence (looked up): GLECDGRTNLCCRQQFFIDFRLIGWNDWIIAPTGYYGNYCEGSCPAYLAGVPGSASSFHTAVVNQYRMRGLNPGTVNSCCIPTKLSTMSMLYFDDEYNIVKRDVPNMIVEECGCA

BMP9 = target: T3, BMP9 (UniProt Q9UK05 320-429); assay: Octet BLI, IgG, avid
T3 sequence (looked up): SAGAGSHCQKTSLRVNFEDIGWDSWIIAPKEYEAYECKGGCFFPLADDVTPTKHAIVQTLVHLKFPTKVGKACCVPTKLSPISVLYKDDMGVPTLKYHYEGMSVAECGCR

BMP10 = target: T4, BMP10 (UniProt O95393 317-424); assay: Octet BLI, IgG, avid
T4 sequence (looked up): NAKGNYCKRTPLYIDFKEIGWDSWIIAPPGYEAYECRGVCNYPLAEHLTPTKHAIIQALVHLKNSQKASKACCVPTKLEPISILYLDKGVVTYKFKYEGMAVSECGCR

GDF15 Fc = target: T5, GDF15 Fc (UniProt Q99988 197-308, limits assumed); assay: Octet BLI, IgG, avid
T5 construct: not shown: Fc part
T5 sequence (looked up): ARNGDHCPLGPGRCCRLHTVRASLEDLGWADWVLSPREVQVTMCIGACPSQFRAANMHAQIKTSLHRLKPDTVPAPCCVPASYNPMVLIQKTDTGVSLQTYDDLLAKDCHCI

Human GDNF = target: T6, Human GDNF (human, UniProt P39905 78-211); assay: Octet BLI, IgG, avid
T6 sequence (looked up): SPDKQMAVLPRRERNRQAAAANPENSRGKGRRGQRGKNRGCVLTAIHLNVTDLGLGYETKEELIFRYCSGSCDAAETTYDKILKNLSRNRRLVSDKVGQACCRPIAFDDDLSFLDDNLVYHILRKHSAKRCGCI

Human GDF8 = Human GDF8 (human, UniProt O14793 267-375); assay: Octet BLI, IgG, avid
Human GDF10 = target: T7, Human GDF10 (human, UniProt P55107 369-478); assay: Octet BLI, IgG, avid
T7 sequence (looked up): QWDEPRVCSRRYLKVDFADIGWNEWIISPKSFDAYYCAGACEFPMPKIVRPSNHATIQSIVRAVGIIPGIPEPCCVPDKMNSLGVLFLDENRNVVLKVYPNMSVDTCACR

Human GDF11 = Human GDF11 (human, UniProt O95390 299-407); assay: Octet BLI, IgG, avid
[3] = target: T8, Activin A (ligand of the Activin 2B Receptor/SMAD reporter assay) (UniProt P08476 311-426); assay: cell-based or functional assay
T8 sequence (looked up): T1 sequence

Activin B [4] = target: T2, Activin B; assay: cell-based or functional assay
Human Activin A Fc [5] = target: T1, Human Activin A Fc; assay: KD with 5% HSA, method not stated
Human Activin A Fc [6] = target: T1, Human Activin A Fc; assay: KD with 0.1% BSA, method not stated
Human Activin A Fc [7] = target: T1, Human Activin A Fc; assay: KD with 0.1% HSA, method not stated

Sequence of Human GDF11 (O95390 299-407 limits assumed): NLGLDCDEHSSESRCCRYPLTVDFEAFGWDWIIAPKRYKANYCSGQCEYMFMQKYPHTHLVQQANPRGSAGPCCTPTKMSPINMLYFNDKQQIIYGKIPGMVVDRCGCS

B2: anti-Activin A antibody Clone A (IgG) (antibody, V domains shown)
VH: QVQLVQSGAEVKKPGASVKVSCKASGYTFTGYYMHWVRQAPGQGLEWMGSINPSSGGTNYAQKFQGRVTMTTDTSTSTAYMELRSLRSDDTAVYYCARARDIAAAGLGAFDYWGQGTLVTVSS
VL: EIVLTQSPGTLSLSPGERATLSCRASQSVRSSYLAWYQQKPGQAPRLLIYGASSRATGIPDRFSGSGSGTDFTLTISRLEPEDFAVYYCQQYVSYPRTFGGGTKVEIKR
notes: IgG format; also called Antibody A
Kd (Human Activin A Fc [1]): 0.81 nM
binding result (Activin B [2]): no binding (tested: 100 nM antigen)
binding result (BMP9): no binding (tested: 100 nM antigen)
binding result (BMP10): no binding (tested: 100 nM antigen)
binding result (GDF15 Fc): no binding (tested: 100 nM antigen)
binding result (Human GDNF): no binding (tested: 100 nM antigen)
binding result (Human GDF8): no binding (tested: 100 nM antigen)
binding result (Human GDF10): no binding (tested: 100 nM antigen)
binding result (Human GDF11): no binding (tested: 100 nM antigen)
Activin A-ActRIIB SMAD IC50 pM [3]: 324 pM and 282 pM and 361 pM
Activin B-ActRIIB SMAD IC50 pM (Activin B [4]): > 100000 pM

B4: anti-Activin A antibody Clone E (IgG) (antibody, V domains shown)
VH: B2 VH with T30H, Y33N, S54Y, G57Y, N59I, T72R, T76I, R84S, S85R
VL: B2 VL
notes: IgG format; also called Antibody E
Kd (Human Activin A Fc [1]): 0.551 nM
binding result (BMP9): no binding (tested: 100 nM antigen)
binding result (BMP10): no binding (tested: 100 nM antigen)
binding result (GDF15 Fc): no binding (tested: 100 nM antigen)
binding result (Human GDNF): no binding (tested: 100 nM antigen)
binding result (Human GDF8): no binding (tested: 100 nM antigen)
binding result (Human GDF10): no binding (tested: 100 nM antigen)
Kd (Human GDF11): 27.3 nM
Activin A-ActRIIB SMAD IC50 pM [3]: 16.5 pM
Activin B-ActRIIB SMAD IC50 pM (Activin B [4]): 83600 pM

B5: anti-Activin A antibody Clone G (IgG) (antibody, V domains shown)
VH: B2 VH with G31S, M34I, S50A, N52Y, P53A, S54Y, G57D, F64L
VL: B2 VL with V93S, S94N
notes: IgG format; also called Antibody G
Kd (Human Activin A Fc [1]): 0.68 nM
binding result (Activin B [2]): no binding (tested: 100 nM antigen)
binding result (BMP9): no binding (tested: 100 nM antigen)
binding result (BMP10): no binding (tested: 100 nM antigen)
binding result (GDF15 Fc): no binding (tested: 100 nM antigen)
binding result (Human GDNF): no binding (tested: 100 nM antigen)
binding result (Human GDF8): no binding (tested: 100 nM antigen)
binding result (Human GDF10): no binding (tested: 100 nM antigen)
binding result (Human GDF11): no binding (tested: 100 nM antigen)
Activin A-ActRIIB SMAD IC50 pM [3]: 15.8 pM
Activin B-ActRIIB SMAD IC50 pM (Activin B [4]): > 100000 pM

B6: anti-Activin A antibody Clone H (IgG) (antibody, V domains shown)
VH: B2 VH with Y33H, M34I, S50H, N52S, P53A, S54Y, G57T, F64L
VL: B2 VL with V93S, S94N
notes: IgG format; also called Antibody H
Kd (Human Activin A Fc [1]): 0.666 nM
binding result (BMP9): no binding (tested: 100 nM antigen)
binding result (BMP10): no binding (tested: 100 nM antigen)
binding result (GDF15 Fc): no binding (tested: 100 nM antigen)
binding result (Human GDNF): no binding (tested: 100 nM antigen)
binding result (Human GDF8): no binding (tested: 100 nM antigen)
binding result (Human GDF10): no binding (tested: 100 nM antigen)
binding result (Human GDF11): no binding (tested: 100 nM antigen)
Activin A-ActRIIB SMAD IC50 pM [3]: 36.9 pM
Activin B-ActRIIB SMAD IC50 pM (Activin B [4]): > 100000 pM

The remaining lines, values ahead:

Kd (Human Activin A Fc [1]): 1.57 nM
Kd (Activin B [2]): 241 nM
binding result (BMP9): no binding (tested: 100 nM antigen)
binding result (BMP10): no binding (tested: 100 nM antigen)
binding result (GDF15 Fc): no binding (tested: 100 nM antigen)
binding result (Human GDNF): no binding (tested: 100 nM antigen)
binding result (Human GDF8): no binding (tested: 100 nM antigen)
binding result (Human GDF10): no binding (tested: 100 nM antigen)
binding result (Human GDF11): no binding (tested: 100 nM antigen)
Activin A-ActRIIB SMAD IC50 pM [3]: 200 pM
Activin B-ActRIIB SMAD IC50 pM (Activin B [4]): > 100000 pM
B1: anti-Activin A antibody Clone L (IgG) (antibody, V domains shown)
VH: QVQLQESGPGLVKPSETLSLTCAVSGYSISSGYYWGWIRQPPGKGLEWIGSIYHSGSTYYNPSLKSRVTISVDTSKNQFSLKLSSVTAADTAVYYCAREAGSGYWYLSVYGMDVWGQGTTVTVSS
VL: EIVLTQSPATLSVSPGERATLSCRASQSVSSNLAWYQQKPGQAPRLLIYGASTRATGIPARFSGSGSGTEFTLTISSLQSEDFAVYYCQQSDDWPWTFGGGTKVEIKR
notes: IgG format; also called Antibody L

Kd (Human Activin A Fc [1]): 0.536 nM
binding result (Activin B [2]): no binding (tested: 100 nM antigen)
binding result (BMP9): no binding (tested: 100 nM antigen)
binding result (BMP10): no binding (tested: 100 nM antigen)
binding result (GDF15 Fc): no binding (tested: 100 nM antigen)
binding result (Human GDNF): no binding (tested: 100 nM antigen)
binding result (Human GDF8): no binding (tested: 100 nM antigen)
binding result (Human GDF10): no binding (tested: 100 nM antigen)
binding result (Human GDF11): no binding (tested: 100 nM antigen)
Activin A-ActRIIB SMAD IC50 pM [3]: 1.09 pM
Activin B-ActRIIB SMAD IC50 pM (Activin B [4]): 52400 pM
B3: anti-Activin A antibody Clone I (IgG) (antibody, V domains shown)
VH: QVQLVQSGAEVKKPGSSVKVSCKASGGTFSNYAISWVRQAPGQGLEWMGYIIPFFGTANYAQKFQGRVTITADESTSTAYMELSSLRSEDTAVYYCARGGSGYSTSWGSSLYWGQGTLVTVSS
VL: B2 VL with R30S, S54Y, Q90L, Y92S, V93G, S94V, Y95F, R97Y
notes: IgG format; also called Antibody I

Kd (Human Activin A Fc [1]): 0.43 nM
binding result (Activin B [2]): no binding (tested: 100 nM antigen)
binding result (BMP9): no binding (tested: 100 nM antigen)
binding result (BMP10): no binding (tested: 100 nM antigen)
binding result (GDF15 Fc): no binding (tested: 100 nM antigen)
binding result (Human GDNF): no binding (tested: 100 nM antigen)
binding result (Human GDF8): no binding (tested: 100 nM antigen)
binding result (Human GDF10): no binding (tested: 100 nM antigen)
binding result (Human GDF11): no binding (tested: 100 nM antigen)
Activin B-ActRIIB SMAD IC50 pM (Activin B [4]): 30700 pM
B7: anti-Activin A antibody Clone K (IgG) (antibody, V domains shown)
VH: QVQLVQSGAEVKKPGSSVKVSCKASGGTSSSYAISWVRQAPGQGLEWMGYIIPAFGTANYAQKFQGRVTITADESTSTAYMELSSLRSEDTAVYYCARPVRTYPLGKYFYHWGQGTLVTVSS
VL: EIVLTQSPATLSLSPGERATLSCRASQSVSSYLAWYQQKPGQAPRLLIYDASNRATGIPARFSGSGSGTDFTLTISSLEPEDFAVYYCQQDSIFPPYTFGGGTKVEIKR
notes: IgG format; also called Antibody K

Kd (Human Activin A Fc [1]): 0.585 nM
binding result (Activin B [2]): no binding (tested: 100 nM antigen)
binding result (BMP9): no binding (tested: 100 nM antigen)
binding result (BMP10): no binding (tested: 100 nM antigen)
binding result (GDF15 Fc): no binding (tested: 100 nM antigen)
binding result (Human GDNF): no binding (tested: 100 nM antigen)
binding result (Human GDF8): no binding (tested: 100 nM antigen)
binding result (Human GDF10): no binding (tested: 100 nM antigen)
binding result (Human GDF11): no binding (tested: 100 nM antigen)
Kd (Human Activin A Fc [5]): 0.189 nM
Kd (Human Activin A Fc [6]): 0.128 nM
Kd (Human Activin A Fc [7]): 0.156 nM
B8: anti-Activin A antibody Clone Q (IgG) (antibody, V domains shown)
VH: QVQLVQSGAEVKKPGSSVKVSCKASGGSFSPYTWSWVRQAPGQGLEWMGGIIPISGTANTAQKFQGRVTITADESTSTAYMELSSLRSEDTAVYYCARGGPLSGWRASYYYWGQGTLVTVSS
VL: not shown
notes: IgG format; also called Antibody Q
